Where no end group is shown, it is not given here.
T1: sorting nexin 5 (Homo sapiens (Human), UniProt Q9Y5X3 1-404, limits assumed)
T1 construct: also called SNX5; Myc-SNX5
T1 sequence: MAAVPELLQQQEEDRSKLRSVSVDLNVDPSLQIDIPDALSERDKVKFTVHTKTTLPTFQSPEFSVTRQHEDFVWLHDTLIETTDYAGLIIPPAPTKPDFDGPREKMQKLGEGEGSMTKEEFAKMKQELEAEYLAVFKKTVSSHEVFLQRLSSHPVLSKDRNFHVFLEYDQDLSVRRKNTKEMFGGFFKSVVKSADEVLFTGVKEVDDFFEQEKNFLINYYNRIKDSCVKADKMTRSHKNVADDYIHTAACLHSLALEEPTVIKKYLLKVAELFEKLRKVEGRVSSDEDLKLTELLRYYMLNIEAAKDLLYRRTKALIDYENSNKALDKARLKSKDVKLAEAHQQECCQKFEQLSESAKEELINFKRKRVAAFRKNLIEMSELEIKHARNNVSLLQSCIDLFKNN

T2: LMO4 (Homo sapiens (Human), UniProt P61968 1-165)
T2 sequence: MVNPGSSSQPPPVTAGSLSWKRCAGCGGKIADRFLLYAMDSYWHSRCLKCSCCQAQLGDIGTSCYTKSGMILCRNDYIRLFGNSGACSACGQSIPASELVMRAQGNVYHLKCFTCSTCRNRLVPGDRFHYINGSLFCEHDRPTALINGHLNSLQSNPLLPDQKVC

B1: C-terminus of the PIPKIγ 707 splice variant (other)
chain: FTDGRYWIYSPRHRRLRAVTLSASGTVSDRSRPPWGEGAVPLGQQGAAGPRPEAQCLTSVVFQKGFG
notes: Yeast two-hybrid bait
B2: C-terminus of the PIPKIγ 700 variant (other)
chain: WRLWGPHAPTWPWRREGRAACLCPYPPHVVTPFPGTGLCASWSPDGTGGLGAMSCCVSVS
modifications: not fully specified; cysteine pairing not given here
notes: Yeast two-hybrid bait

Assays:
sorting nexin 5 = target: T1, sorting nexin 5; test: yeast two-hybrid screen
LMO4 = target: T2, LMO4; test: yeast two-hybrid screen

Binder	binding result (sorting nexin 5)	binding result (LMO4)
B1	binds	–
B2	–	binds
